PMC12445222

Assays:
[1] = substrate: ClCCCl; assay: ITC initial rates, steady-state fit with substrate inhibition; assay type: biochemical, Xanthobacter autotrophicus; details: 100 mM glycine buffer, pH 8.6, 15 °C
[2] = substrate: ClCCCl; assay: ITC initial rates, steady-state fit; assay type: biochemical, Xanthobacter autotrophicus; details: 100 mM glycine buffer, pH 8.6, 15 °C

Row | Protein | Km [1] | kcat [1] | Km [2] | kcat [2]
1 | haloalkane dehalogenase (DhlA) (Xanthobacter autotrophicus) (protein) MINAIRTPDQRFSNLDQYPFSPNYLDDLPGYPGLRAHYLDEGNSDAEDVFLCLHGEPTWSYLYRKMIPVFAESGARVIAPDFFGFGKSDKPVDEEDYTFEFHRNFLLALIERLDLRNITLVVQDWGGFLGLTLPMADPSRFKRLIIMNACLMTDPVTQPAFSAFVTQPADGFTAWKYDLVTPSDLRLDQFMKRWAPTLTEAEASAYAAPFPDTSYQAGVRKFPKMVAQRDQACIDISTEAISFWQNDWNGQTFMAIGMKDKLLGPDVMYPMKALINGCPEPLEIADAGHFVQEFGEQVAREALKHFAETE | 60 ± 10 µM | 0.27 ± 0.01 s⁻¹ | – | –
2 | haloalkane dehalogenase (DhlA) (Xanthobacter autotrophicus; F128L) (protein) MINAIRTPDQRFSNLDQYPFSPNYLDDLPGYPGLRAHYLDEGNSDAEDVFLCLHGEPTWSYLYRKMIPVFAESGARVIAPDFFGFGKSDKPVDEEDYTFEFHRNFLLALIERLDLRNITLVVQDWGGLLGLTLPMADPSRFKRLIIMNACLMTDPVTQPAFSAFVTQPADGFTAWKYDLVTPSDLRLDQFMKRWAPTLTEAEASAYAAPFPDTSYQAGVRKFPKMVAQRDQACIDISTEAISFWQNDWNGQTFMAIGMKDKLLGPDVMYPMKALINGCPEPLEIADAGHFVQEFGEQVAREALKHFAETE | 700 ± 30 µM | 0.05 ± 0.01 s⁻¹ | – | –
3 | haloalkane dehalogenase (DhlA) (Xanthobacter autotrophicus; L262V) (protein) MINAIRTPDQRFSNLDQYPFSPNYLDDLPGYPGLRAHYLDEGNSDAEDVFLCLHGEPTWSYLYRKMIPVFAESGARVIAPDFFGFGKSDKPVDEEDYTFEFHRNFLLALIERLDLRNITLVVQDWGGFLGLTLPMADPSRFKRLIIMNACLMTDPVTQPAFSAFVTQPADGFTAWKYDLVTPSDLRLDQFMKRWAPTLTEAEASAYAAPFPDTSYQAGVRKFPKMVAQRDQACIDISTEAISFWQNDWNGQTFMAIGMKDKVLGPDVMYPMKALINGCPEPLEIADAGHFVQEFGEQVAREALKHFAETE | 250 ± 30 µM | 0.25 ± 0.01 s⁻¹ | – | –
4 | haloalkane dehalogenase (DhlA) (Xanthobacter autotrophicus; F128L/L262V) (protein) MINAIRTPDQRFSNLDQYPFSPNYLDDLPGYPGLRAHYLDEGNSDAEDVFLCLHGEPTWSYLYRKMIPVFAESGARVIAPDFFGFGKSDKPVDEEDYTFEFHRNFLLALIERLDLRNITLVVQDWGGLLGLTLPMADPSRFKRLIIMNACLMTDPVTQPAFSAFVTQPADGFTAWKYDLVTPSDLRLDQFMKRWAPTLTEAEASAYAAPFPDTSYQAGVRKFPKMVAQRDQACIDISTEAISFWQNDWNGQTFMAIGMKDKVLGPDVMYPMKALINGCPEPLEIADAGHFVQEFGEQVAREALKHFAETE | – | – | 1040 ± 60 µM | 0.18 ± 0.01 s⁻¹
5 | haloalkane dehalogenase (DhlA) (Xanthobacter autotrophicus; F128L/L262I) (protein) MINAIRTPDQRFSNLDQYPFSPNYLDDLPGYPGLRAHYLDEGNSDAEDVFLCLHGEPTWSYLYRKMIPVFAESGARVIAPDFFGFGKSDKPVDEEDYTFEFHRNFLLALIERLDLRNITLVVQDWGGLLGLTLPMADPSRFKRLIIMNACLMTDPVTQPAFSAFVTQPADGFTAWKYDLVTPSDLRLDQFMKRWAPTLTEAEASAYAAPFPDTSYQAGVRKFPKMVAQRDQACIDISTEAISFWQNDWNGQTFMAIGMKDKILGPDVMYPMKALINGCPEPLEIADAGHFVQEFGEQVAREALKHFAETE | 1080 ± 100 µM | 0.36 ± 0.02 s⁻¹ | – | –
